Columns and labels:
YFP-FAK (mouse) = YFP-FAK (mouse) (UniProt P34152); assay: FRET or BRET
[1] = molecular target: Focal adhesion kinase (FAK), endogenous in rat aortic smooth muscle cells (rat (endogenous in RASMs)) (UniProt O35346); assay: co-IP
UniProt O35346, sequence (O35346 whole entry): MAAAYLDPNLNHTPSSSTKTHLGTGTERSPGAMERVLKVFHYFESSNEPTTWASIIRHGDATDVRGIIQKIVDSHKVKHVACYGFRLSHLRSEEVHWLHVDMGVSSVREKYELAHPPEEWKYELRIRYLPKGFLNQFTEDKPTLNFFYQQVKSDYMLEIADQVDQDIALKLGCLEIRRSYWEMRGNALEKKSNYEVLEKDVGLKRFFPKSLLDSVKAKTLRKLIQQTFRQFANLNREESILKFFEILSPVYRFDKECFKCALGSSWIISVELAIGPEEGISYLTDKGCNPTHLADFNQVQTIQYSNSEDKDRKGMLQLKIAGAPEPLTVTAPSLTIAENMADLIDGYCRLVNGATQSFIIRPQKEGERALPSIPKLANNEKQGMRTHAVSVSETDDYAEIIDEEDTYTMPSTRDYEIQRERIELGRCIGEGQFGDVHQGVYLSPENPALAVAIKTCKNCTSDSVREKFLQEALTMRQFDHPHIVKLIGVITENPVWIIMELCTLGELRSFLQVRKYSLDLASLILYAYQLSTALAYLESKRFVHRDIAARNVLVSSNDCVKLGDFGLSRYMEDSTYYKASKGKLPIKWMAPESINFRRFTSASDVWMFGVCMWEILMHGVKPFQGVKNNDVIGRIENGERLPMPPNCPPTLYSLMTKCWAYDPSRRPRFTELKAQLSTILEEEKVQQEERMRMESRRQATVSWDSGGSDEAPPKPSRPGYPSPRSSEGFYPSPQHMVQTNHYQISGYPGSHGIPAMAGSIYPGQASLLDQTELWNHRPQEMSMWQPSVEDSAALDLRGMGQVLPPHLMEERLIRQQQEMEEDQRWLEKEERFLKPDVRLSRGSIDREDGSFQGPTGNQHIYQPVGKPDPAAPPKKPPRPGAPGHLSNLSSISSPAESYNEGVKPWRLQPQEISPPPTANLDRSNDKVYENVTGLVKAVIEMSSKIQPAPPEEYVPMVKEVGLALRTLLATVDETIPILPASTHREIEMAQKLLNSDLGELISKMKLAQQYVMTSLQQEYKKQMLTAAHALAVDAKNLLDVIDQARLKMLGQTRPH

UniProt P34152, sequence (P34152 whole entry): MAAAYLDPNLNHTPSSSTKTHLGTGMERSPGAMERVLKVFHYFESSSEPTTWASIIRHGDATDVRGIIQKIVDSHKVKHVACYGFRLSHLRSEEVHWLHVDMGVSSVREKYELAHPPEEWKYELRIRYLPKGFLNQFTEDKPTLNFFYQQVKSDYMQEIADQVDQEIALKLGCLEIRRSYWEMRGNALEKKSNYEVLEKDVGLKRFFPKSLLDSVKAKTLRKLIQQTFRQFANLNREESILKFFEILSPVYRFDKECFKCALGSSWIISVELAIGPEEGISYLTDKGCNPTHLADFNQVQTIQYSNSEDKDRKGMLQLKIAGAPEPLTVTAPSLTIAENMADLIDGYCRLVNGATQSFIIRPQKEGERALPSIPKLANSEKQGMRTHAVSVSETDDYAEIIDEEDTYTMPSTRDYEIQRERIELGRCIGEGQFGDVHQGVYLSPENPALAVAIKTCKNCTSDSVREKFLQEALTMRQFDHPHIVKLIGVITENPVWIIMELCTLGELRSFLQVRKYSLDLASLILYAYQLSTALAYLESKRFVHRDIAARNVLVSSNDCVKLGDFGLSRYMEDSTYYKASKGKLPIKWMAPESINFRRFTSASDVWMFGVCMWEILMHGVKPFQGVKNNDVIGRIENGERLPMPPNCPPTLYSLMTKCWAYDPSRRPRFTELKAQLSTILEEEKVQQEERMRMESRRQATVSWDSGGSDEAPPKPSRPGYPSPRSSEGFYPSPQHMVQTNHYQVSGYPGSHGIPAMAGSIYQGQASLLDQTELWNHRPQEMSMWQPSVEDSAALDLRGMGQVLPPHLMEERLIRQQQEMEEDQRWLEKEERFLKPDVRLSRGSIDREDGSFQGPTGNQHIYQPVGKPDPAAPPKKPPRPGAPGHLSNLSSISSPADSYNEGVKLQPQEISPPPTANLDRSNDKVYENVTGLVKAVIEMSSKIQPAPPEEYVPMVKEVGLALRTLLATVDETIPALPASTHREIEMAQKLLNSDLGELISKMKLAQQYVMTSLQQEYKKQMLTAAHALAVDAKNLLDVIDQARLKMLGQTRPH

Q: For “cyan fluorescent protein (CFP) S217A-FRNK (natural protein)”, which FRET efficiency (YFP-FAK (mouse)) is on record?
A: The FRET efficiency was 53%.

Q: What about the fold co-immunoprecipitation against WT-FRNK [1] of the same substance?
A: The fold co-immunoprecipitation against WT-FRNK was 5 fold.

Source: paper PMC6800154
